The source of these data is patent CN115197317A (ANYUAN PHARMACEUTICAL TECH SHANGHAI CO LTD, dated 2022).

Broadly, the IC50 is the concentration that gives 50% inhibition. Low readings indicate greater potency, high ones weaker potency. The EC50 is the midpoint of the concentration-response curve. Lower therefore signals a more potent agent.

One experiment addresses 刺突S-鼠Fc融合蛋白 (S-mFc) (SARS-CoV-2; mouse, UniProt P0DTC2 14-1213).
Experiment [1] concerns the target T1, SARS-CoV-2 S蛋白 (ACRO Biosystems, coated in ELISA 7.1) (SARS-CoV-2, UniProt P0DTC2 16-1213).
T1 construct: also called SARS-CoV S蛋白(ACRO Biosystems)
Put plainly: indirect ELISA, S protein coated at 0.1 μg/mL. For orientation: An ELISA detects its analyte on a solid surface through an enzyme-linked reagent.

Another experiment addresses SARS-CoV-2 S蛋白(His标签) (SARS-CoV-2, UniProt P0DTC2 16-1213). In words: competition ELISA, S protein (His tag) coated, HRP-hACE2-Fc as competitor.

B1: 人源化抗体hST-35-4 (antibody, V domains shown)
VH: EVQLVQSGAEVKKPGSSVKVSCKTSGYTFTTYTIHWIRQAPGQGLEWIGAVNPGNADTSYSQKFKGRATLTADKSSNTAYMELSSLRSEDTAVYYCARDAYPYFYALDSWGQGTTVTVSS
VL: DIQMTQSPSSLSASVGDRVTITCRAGQEISSYLTWLQQKPEGTIKRLIYAASTLDSGVPKRFSGSRSGSDYTLTISSLQPEDFATYYCLQYASYPWTFGGGTKVEIKR
For the molecule B1, the IC50 with 刺突S-鼠Fc融合蛋白 (S-mFc) came out at 0.0163 µg/mL; with SARS-CoV-2 S蛋白(His标签), 0.194 µg/mL. Further, a half-maximal response in experiment [1] (EC50) required 1.8 ng/mL.

B2: 人源化抗体hST-10-4 (antibody, V domains shown)
VH: EVTLKESGPALVKPTQTLTLTCTFSGFSLDSSNMGVSWIRQPPGKGLEWLAHIYWGDDNRYNPSLKSRLTVSKDTSKNQVVLTMTNMEPVDTATYYCARKWNWDWFPYWGQGTTVTVSS
VL: DIVLTQSPDSLAVSLGERATINCRASKSVSASGYSFMHWYQQKPGQPPKLLISLASNLESGVPARFSGSGSGTDFTLTISRLQAEDVAVYYCQHSRELPLTFGAGTKLEIKR
For the molecule B2, the figures for the IC50 in the experiment with 刺突S-鼠Fc融合蛋白 (S-mFc) and with SARS-CoV-2 S蛋白(His标签) were 0.0123 µg/mL and 0.257 µg/mL, respectively. In addition, the EC50 in experiment [1] worked out at 2.3 ng/mL.

B3: 鼠源抗体ST-10-4 (antibody, V domains shown)
VH: QVTLKESGPGILQPSQTLTLTCSFSGFSLDSSNMGVSWIRQTSGKGLEWLAHIYWGDDNRYNPSLKSRLTVSKDTSSNQVFLKLTNVDTADTATYYCARKWNWDWFPYWGQGTLVTVSA
VL: DIVLTQSPTSLPVSLGQRATISCRASKSVSASGYSFMHWYQQKPGQPPKLLISLASNLESGVPARFSGSGSGTDFTLNIHPVEEEDAATYYCQHSRELPLTFGAGTKLELK
In the case of B3, 0.0165 µg/mL corresponded to half-maximal inhibition in the experiment with 刺突S-鼠Fc融合蛋白 (S-mFc) (IC50).

B4: 鼠源抗体ST-35-4 (antibody, V domains shown)
VH: QVQLQQPGAELVRPGASMKLSCKTSGYTFTTYTIHWIKQTPGQGLEWIGAVNPGNGDTSYSQKFKGRAILTADKSSNTASMQFSSLTSEDSAVYYCARDGYPYFYALDSWGQGTSVTVSS
VL: DIQMTQSPSSLSASLGERVSLTCRAGQEISSYLTWLQQKPDGTIKRLIYAASTLDSGVPKRFSGSRSGSDYSLTINSLESEDFADYYCLQYASYPWTFGGGTKVEIK
Regarding B4, the IC50 with 刺突S-鼠Fc融合蛋白 (S-mFc) was determined as 0.0118 µg/mL.
